Assay results: patent US20230295347A1 (published 2023)

How the values were obtained:
[1] = target: T1, cysteine-rich domain (CRD) of human Fzd4 (UniProt Q9ULV1 40-161); test: BLI
T1 chain: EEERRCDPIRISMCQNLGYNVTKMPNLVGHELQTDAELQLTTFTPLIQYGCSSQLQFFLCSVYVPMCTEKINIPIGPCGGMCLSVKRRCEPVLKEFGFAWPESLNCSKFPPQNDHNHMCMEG

[2] = target: T1, cysteine-rich domain (CRD) of human Fzd4; test: SPR; apparent KD, average of four capture concentrations

Kd [1]: 44.7 nM | Kd [2]: 729 nM
B1: 4SD1-03_LALAPG (bispecific antibody)
heavy: EVQLVESGGGLVKPGGSLRLSCAASGFTFTNYAMSWVRQAPGKGLEWVSAISGSGGSTYYADSVKGRFTISRDDSKNTLYLQMNSLKTEDTAVYYCARATGFGTVVFDYWGQGTLVTVSSASTKGPSVFPLAPSSKSTSGGTAALGCLVKDYFPEPVTVSWNSGALTSGVHTFPAVLQSSGLYSLSSVVTVPSSSLGTQTYICNVNHKPSNTKVDKKVEPKSCDKTHTCPPCPAPEAAGGPSVFLFPPKPKDTLMISRTPEVTCVVVDVSHEDPEVKFNWYVDGVEVHNAKTKPREEQYNSTYRVVSVLTVLHQDWLNGKEYKCKVSNKALGAPIEKTISKAKGQPREPQVYTLPPSREEMTKNQVSLTCLVKGFYPSDIAVEWESNGQPENNYKTTPPVLDSDGSFFLYSKLTVDKSRWQQGNVFSCSVMHEALHNHYTQKSLSLSPGK
light: not shown
